Results as given in publication PMC2791442, “Three Dimensional Structure of the MqsR:MqsA Complex: A Novel TA Pair Comprised of a Toxin Homologous to RelE and an Antitoxin with Unique Properties” (PLoS Pathogens, 2009).

Key:
[1] = biological target: T1, MqsR, his6-tag cleaved, co-expressed with MqsA-N (E. coli, UniProt Q46865 1-98); assay: SEC + other: dynamic light scattering; co-expressed and co-purified complex on a size exclusion column (Superdex 75 26/60 for MqsR:MqsA-F); oligomeric state confirmed by dynamic light scattering; conditions: both partners purified
T1 construct: MqsR (YgiU, b3022) toxin of Escherichia coli, 98 residues; 1-97 seen in the first complex of the crystal; also called YgiU; B3022; not shown: His6, N-terminal, cleaved
T1 sequence (looked up): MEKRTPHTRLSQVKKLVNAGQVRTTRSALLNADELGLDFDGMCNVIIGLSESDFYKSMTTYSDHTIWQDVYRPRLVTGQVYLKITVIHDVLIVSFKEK

[2] = biological target: the molecule itself; assay: as above
[3] = biological target: T2, MqsR (his-tagged), co-expressed with full-length MqsA (E. coli, UniProt Q46865 1-98); assay: as above; conditions: both partners purified
T2 construct: MqsR (YgiU, b3022) toxin of Escherichia coli, 98 residues; also called YgiU; B3022; not shown: His6, N-terminal, kept
T2 sequence (looked up): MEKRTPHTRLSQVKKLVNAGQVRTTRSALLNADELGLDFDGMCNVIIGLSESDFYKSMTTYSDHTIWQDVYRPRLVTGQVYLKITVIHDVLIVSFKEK

[4] = biological target: the molecule itself; assay: crystal structure; MqsA-F, 2.15 Å, molecular replacement; sitting drop at 4°C, 75 mM Bis-Tris pH 5.5, 150 mM MgCl2, 19% PEG3350; two molecules in the asymmetric unit

B1: MqsA N-terminal domain (MqsA-N), untagged, co-expressed with MqsR (domain or fragment, E. coli, UniProt Q46864 1-76, looked up)
chain: MKCPVCHQGEMVSGIKDIPYTFRGRKTVLKGIHGLYCVHCEESIMNKEESDAFMAQVKAFRASVNAETVAPEFIVK
notes: MqsA (YgiT, b3021) antitoxin of Escherichia coli, N-terminal domain, residues 1-76; Untagged pCA21a vector; source: E. coli BL21 (DE3), co-expressed with MqsR, purified (his6-tag of MqsR, thrombin cleavage, subtraction his6-tag, SEC)
stoichiometry N [1]: 1 MqsA-N per MqsR (1:1 heterodimer)

B2: Full-length MqsA (MqsA-F), untagged, co-expressed with MqsR (natural protein, E. coli, UniProt Q46864 1-131, looked up)
chain: MKCPVCHQGEMVSGIKDIPYTFRGRKTVLKGIHGLYCVHCEESIMNKEESDAFMAQVKAFRASVNAETVAPEFIVKVRKKLSLTQKEASEIFGGGVNAFSRYEKGNAQPHPSTIKLLRVLDKHPELLNEIR
notes: MqsA (YgiT, b3021) antitoxin of Escherichia coli, residues 1-131; Two copies stand in the MqsR:MqsA2:MqsR complex; also called YgiT; B3021; source: co-expressed with his-tagged MqsR, co-purified, SEC
binding result [2]: binds
stoichiometry N [3]: 1 MqsA-F per MqsR (2:2 complex)

B3: Full-length MqsA (MqsA-F), his6-tag cleaved (natural protein, E. coli, UniProt Q46864 1-131, looked up)
chain: MKCPVCHQGEMVSGIKDIPYTFRGRKTVLKGIHGLYCVHCEESIMNKEESDAFMAQVKAFRASVNAETVAPEFIVKVRKKLSLTQKEASEIFGGGVNAFSRYEKGNAQPHPSTIKLLRVLDKHPELLNEIR
modifications: Gln108 methylated at N5
notes: MqsA (YgiT, b3021) antitoxin of Escherichia coli, residues 1-131; Modified pET28a with a TEV site; also called YgiT; B3021; source: E. coli One Shot BL21 (DE3), purified (his6-tag, TEV cleavage, subtraction his6-tag, SEC); not shown: His6, N-terminal, cleaved
binding result [4]: binds
